In the domain aggregation screens of Martell et al. (2025):

Test: soluble fraction after stress (log2 fold change); higher = more stays soluble; pooled small domains, quantitative proteomics
Conditions: stress: 50 degC
Summary of the method: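 Custom libraries of small protein domains were pooled and measured in a high-throughput format, with quantitative proteomics as the read-out. Each library was stressed at 50°C. The value is the log2 fold change in the amount of each protein that stays soluble after stress, used as a measure of aggregation propensity; higher values mean more of the protein stays soluble.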

| Sequence | soluble fraction (log2) |
| --- | --- |
| HMVPLTPGELVGTEVRVLWWKEGRGEVIASSRGHQLTLEAHSEDPLRAGSTAVVLEAADDVLVVTS | -0.569 |
| HMITKENYLEKIKEIKVNEFPASMRELYDFFNEATRNGTDWSAYEEGNVKYVVDAYLERLNLLYKSN | -0.175 |
| HMATPEINNLGRLRNAINQSNVNWHQIIKRLQNEYPNNWRQILIAIDRHDLLFRYDVENYIKYG | -1.56 |
| HMELKYIDYDEALVVYAKTVTASGGGLSGVKDEGGIRKVLDFVQNDLYYPTFVDKLTYLVFGL | 0.103 |
| HMFAKVEGITGDILDKLQQQRGFLALSDKSSPEAIYDTFGVSKKVFKQAIGTLFKQQKISIEAEGIRLV | -0.709 |
| HMKVGEIIKAKREELKIPLVNFAKELDISQGYLSQIENGIKTNPNLDIILKIIHRLDIDLAMLL | -1.32 |
| HMQDELSSSVIEEAVVVLLLRAANIDGKKDEQEIEAIKRLIIQQFNYDEEKADILITSASEK | -0.218 |
| HMETLKLRDSGKEVQSLQELLQRQGLSAPMNGIFDEATKSSVIAFQKANGLDADGIVGYKSWETLFTAG | 0.132 |
| HMKQNRNLPVQIINNGKIIESVMTEFNLDIDWVYSEAKRLGYKNIKDIFYAGINRDGQFFIVPLF | -0.448 |
| HMTKRTVKSVARKIADFNRERHRMPTYEEMLTLLAVRSKSVVHFWMNKLLQEGILEKDESGHLTFV | -0.124 |
| HMTFDWAAYEISEKEIRVMSLVAEGFSNKEIAQELFLSEGTVRNYISNILEKLGLRDRTQLAVHYLKAV | -1.28 |
| HMREYRITAEEGHPRIDVFLAGRPEIGLSRSRIQALIDEGQVTLNGAMPKARQAVNPGDVIVVRVPDPE | 0.263 |
| HMKMLPAEVLTHPAVVALIERGAPTGSITPEEVRQASEDAAVEPRHLKALLAHLSALGISVQIP | -0.217 |
| HMKQAINFSDLNSLEEGLGIAIRQKWNEVSINDVPEDKIELVEDWINNNRGKYKGINISIGSTY | 0.167 |
| HMAAGELSGEALIALIERHPMALSALATTFGHSESDLRAFVEPLARQGRLRLFESQGTLFVGGIG | -0.022 |
| HMIGDYALILNIKGGSDWYLGNRVELLFTDGTSKIVTTDKDYNAKKDMVPTQIVTYKVNDNGEYSLKALPT | -2.01 |
| HMKVNMIIVMKPGARETDIQEVSNVLKSAGLGVHISKGTERTIIGVIGDKRLLNGIPLDLMHGVDKLVPIM | 0.0193 |
| HMAAVSTDEEFAALGIPAEWIPVLKSNGFQTVESLKKVAPGALFNQLGGLRKKNKLEIAMPSLDQVKAWLA | 0.115 |
| HMEKKGTVVIATVKGDIHDIGKNIVKVLLENYGFDVIDLGKDVPPEAVVEAVQQSGARLVGLSALM | -0.594 |

| Sequence | soluble fraction (log2) |
| --- | --- |
| HMRTITYSITPAHAGMSVERYLKQQHGYSTRTLVKLKHYPQGLQLNGQHARTVDLLQAGDTLAVTFLD | -0.552 |
| HMVSRVTTPGVVGKTWQETKQILKQADLTVGSLTRDGKDVTPADGDLVTAQNPSAGQAIVRGSSVDLTFDK | 0.31 |
| HMDEFTIILEDAGSQKIAVIKEVRVLNSSLGLKEAKDLVDATPATIMEKADKATADKAKAAFEAAGAKVTI | -0.22 |
| HMLDTPLTARELDVLYLMRQRMSAKEIAKQLGIATMTVNRHAANLYRKLGVNTRWDAVYRAEEVGILPP | -0.992 |
| HMKIQTYEDFRNAYPDIQGSLFGSAERYKTDLDWGDVAAKYDADEELKNVRNIFQLVRRYEQKYS | 0.332 |
| HMESYTEEMLEKMSVSKLRTIARELQVDNMTREQIRFGKKTELIQNILEFTGREIENMQLYDK | -0.134 |
| HMTNKYSSLVIGTVKTIMEEDQYKNLMGPPLKKEIIKQVDKFTNALPIEFDQNDKDFYVKKILINL | -0.304 |
| HMDMAYEVVKAFHDLQDYKDVKGGKVYHHYDVGDTYPRQGLDPAPDETRIEELLSSGNAQGVPLIAEV | 0.0503 |
| HMRIWTISDLYKNVEDKKVSLAVFSEDNDSNKVNVLDINGEEHSVNLLKADLPTLVDLFRKNDVRFAVRSN | 0.12 |
| HMGASGVEVPDVAGMSTAQAVSSLEQKGFVVNRTESYDAGVEKGNVISQSPEGGTKAPNGSAVTIRISQGA | 0.428 |
| HMIYNSGTTDSRGEAIVGGYLVTVTDTDTKDPVANAAVTLHKDNSISIRLPNSRLLDYADQTTVTVQLV | -0.0327 |
| HMKYTEEIFNILSRGGFISANSVSSTVKRYYDALEEDFTEYYDYYKGIGFYLEAGNGYYLFTR | -3.29 |
| HMAFIEADIGKRIKSLRNKKRITLESLAAETGFTKGYLSKVETSEKAPPVSTLGSIARALGVSISTLLGE | -0.224 |
| HMGFLTKTQRLEILLHLKDEPYYNVEKLKELIKNRYGIVYQSSQSYYDLLKEAGLSWHQTQA | -0.64 |
| HMASVAKHIRRLRTERHMTQGDLAEKLFVTRQTVSAWETGKAQPDLETLERIAVVLGVEVTELIYGAP | -0.0295 |
| HMQDGTILPGQKTAIRSLATSGGYDSQDLDTYLATTYGKSIDGLTRTEGADVIKAFQAGTVAK | 0.233 |
| HMVKLQATPSQRKTLDELYVQLKKLEPTAKEDLSLLRRLENSHLVSKQEAQGLISKAIGRVGALAVEQQP | 0.0652 |
| HMIMTTKVSGIMFDKFNPSAILNINGMDYLVRSGDIINGYKILSIGQETVTVQYGANVYKASVG | -2.26 |
| HMYYQEDHDIILEETEDVTDPYLITLRGYIFLNNLQWVAARQAFLSADERFRHRHYSALIAPIMQTIDNAA | -0.013 |
